Fold decrease of affinity against P2C-1F11 data for one substance are collected here from article PMC9395280.

In this assay the target is SARS-CoV-2 WT RBD protein (SARS-CoV-2, wild-type (ancestral)) (UniProt P0DTC2). Briefly: SPR. Background: Surface plasmon resonance follows binding to a sensor surface in real time, without labels.

Some results are limits rather than exact numbers.

The substance P2C-1F11-I27F (antibody) registered a fold decrease of affinity against P2C-1F11 of more than 7 fold.
